Data published in patent US10215752B2, “Nanotube array for optical detection of protein-protein interactions” (MASSACHUSETTS INSTITUTE OF TECHNOLOGY, priority 2010, dated 2019).
Like-named read-outs stand apart in the source and are kept apart here.

Experiments:
[1] = system: SWNT-Chitosan lectin sensors; assay: Ensemble chitosan-SWNT sensor measurements, controls and overall response (lectin not stated); type: binding; conditions: FIG. 30a
Protocol: To increase the reproducibility of these sensors, an automated printing method of the chitosan gel was introduced (FIG. 35). Patterned glass microscope slides (Tekdon™) were inserted in a microarray printer (Digilab MicroSys System™), where the robotic head was programmed to dispense alternating layers of chitosan-SWNT (0.25 wt % chitosan (CHI), 1 vol % acetic acid, 30 ug/ml suspended (6,5) SWNT) and crosslinker (10 vol % glutaraldehyde). The suspended SWNT was made from Southwest Nanotechnologies, Inc. CoMoCAT® nanotubes sonicated in 0.25 wt % chitosan (CHI) and 1 vol % acetic acid for 45 minutes at 40% amplitude with a probe-tip sonicator (Cole Parmer, Model CV18). For each sensor spot ten alternating layers of SWNT-CHI and cross-linker were printed at […] per layer, resulting in a highly-uniform gel of 1 ul SWNT-CHI material. […]
A custom-made near infrared inverted microscope (Zeiss D.1 Observer™) setup allowed us to probe the fluorescent emissions of our SWNT sensors (FIG. 26a). […] The SWNT were excited by a 785 nm laser (B&W Tek™—495 mW) and the emission was sent to a spectrometer (Princeton Instruments Acton SpectraPro 2500i Spectrograph™) and accompanying nIR camera (Intervac MOSIR Camera 350™) The spectra were collected via WinSpec software (Princeton Instruments™) and analyzed with custom Matlab (Mathworks™) code. […]

PA-IIL lectin = target: T1, PA-IIL lectin (Pseudomonas aeruginosa, UniProt Q9HYN5); type: binding; conditions: for sensor response / cross response to PA-IIL lectin: controls and selectivity, FIG. 30a, FIG. 31
T1 construct: made in house; host or cells: E. coli BL21(DE3) Star
T1 sequence (Q9HYN5 entry or part of it): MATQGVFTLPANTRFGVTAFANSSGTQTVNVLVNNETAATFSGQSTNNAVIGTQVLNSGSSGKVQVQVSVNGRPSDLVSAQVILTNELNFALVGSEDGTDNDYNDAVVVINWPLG
Protocol: (§1) To increase the reproducibility of these sensors, an automated printing method of the chitosan gel was introduced (FIG. 35). Patterned glass microscope slides (Tekdon™) were inserted in a microarray printer (Digilab MicroSys System™), where the robotic head was programmed to dispense alternating layers of chitosan-SWNT (0.25 wt % chitosan (CHI), 1 vol % acetic acid, 30 ug/ml suspended (6,5) SWNT) and crosslinker (10 vol % glutaraldehyde). The suspended SWNT was made from Southwest Nanotechnologies, Inc. CoMoCAT® nanotubes sonicated in 0.25 wt % chitosan (CHI) and 1 vol % acetic acid for 45 minutes at 40% amplitude with a probe-tip sonicator (Cole Parmer, Model CV18). […] The chips were printed in a humidified enclosure (85% RH) at 25° C. and allowed to cross-link overnight in the same environment. Nickel-NTA groups were introduced as previously reported^8; see FIG. 3. Briefly, the chips were washed with a dilute basic buffer (0.01 M NaOH) and water three times. Carboxylic acid groups were introduced to the chitosan wrapped SWNT by bathing the chips in succinic anhydride (0.1 M) overnight. The chips were then washed three times with water and the carboxylic acid groups were activated via N-(3-dimethylaminopropyl)-N′-ethylcarbo diimide hydrochloride (EDC-0.1M) and N-hydroxysuccinimide (NHS-0.1M). The chips were bathed in this solution for 2 hours at 25° C. and examined for the expected formation of bubbles. The chips were again washed and allowed to bathe in a solution of a linked tricarboxylic acid group (Nα,Nα-bis(carboxymethyl)-L-lysine a.k.a. NTA-33 mM) overnight. The chips were washed in water again and stored in a 100 mM solution of NiSO4 to allow maximum binding of nickel to the NTA chelating groups.
(§2) A custom-made near infrared inverted microscope (Zeiss D.1 Observer™) setup allowed us to probe the fluorescent emissions of our SWNT sensors (FIG. 26a). The chips were secured on the microscope stage and the objective (50×/0.7 Zeiss™) was pushed in contact with a blank portion of the glass slide (no SWNT-CHI) to obtain a 5 second background spectrum, which was subtracted from the response spectra. The objective was then moved under a SWNT-CHI gel spot and again pushed in contact with the glass slide. […] The SWNT were excited by a 785 nm laser (B&W Tek™—495 mW) and the emission was sent to a spectrometer (Princeton Instruments Acton SpectraPro 2500i Spectrograph™) and accompanying nIR camera (Intervac MOSIR Camera 350™) The spectra were collected via WinSpec software (Princeton Instruments™) and analyzed with custom Matlab (Mathworks™) code. To maximize signal stability, the spectrometer was cooled with liquid nitrogen two hours prior to experimentation and the laser was allowed to reach peak stability for two hours. […] Data was gathered in the form of emission intensity spectra (950-1250 nm) integrated for 5 seconds.
(§3) A typical experiment was run for approximately 1000 frames (at 5 seconds each) and included a few addition and washing steps to detect lectin-glycan binding (FIG. 26b). First NiSO4 was again added to ensure that the SWNT sensors were responsive and that the NTA chelating groups were fully loaded with Ni^++ groups. The nickel was then washed away with PBS three times, leaving 20 ul of PBS on the sensors. The His-tag lectin was then added to the sensor (20 μl at 2 mg/ml) and allowed to bind for 300 seconds.

GafD lectin [2] = target: T2, GafD lectin (Escherichia coli, UniProt Q47341); type: binding; design: made in house; host or cells: E. coli BL21(DE3) Star; conditions: for sensor response / cross response to GafD lectin: controls and selectivity, FIG. 30a, FIG. 31
T2 sequence (Q47341 23-343): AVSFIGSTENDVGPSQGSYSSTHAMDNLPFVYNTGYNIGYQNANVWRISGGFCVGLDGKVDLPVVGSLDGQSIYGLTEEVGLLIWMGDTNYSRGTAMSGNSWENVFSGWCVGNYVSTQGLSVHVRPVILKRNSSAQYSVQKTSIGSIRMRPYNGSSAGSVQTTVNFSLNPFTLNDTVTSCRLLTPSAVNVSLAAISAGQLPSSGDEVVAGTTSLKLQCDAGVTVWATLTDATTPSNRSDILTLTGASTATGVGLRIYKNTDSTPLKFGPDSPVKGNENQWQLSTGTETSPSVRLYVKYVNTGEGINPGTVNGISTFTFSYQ
Protocol: as §1, §2, §3

GafD lectin [3] = target: T2, GafD lectin; conditions: 10 μM probe, sum of noise-reduced traces from 150 individual SWNT sensors
Protocol: A second custom microscope was used to collect emission intensities of single SWNT sensors (FIG. 27a). The SWNT-CHI gel was diluted to 3 μg/ml of SWNT and spin-coated (3000 rpm for 30 s on Make of SpinCoater™) on glass-bottom petridishes (MarTec Corp™). The petri-dishes were then placed on the microscope platform (Zeiss D.1 Observer) and the oil-immersed objective (Zeiss™ 100×/1.46) was focused on the SWNT sensors on the glass surface. The SWNT were excited by a 660 nm laser (Crystal Laser—100 mW) and the emission intensities were recorded by a nitrogen-cooled InGaAs array (Princeton Instruments™). […] These Tiff images were then analyzed using custom Matlab code (Mathworks™) to construct a intensity versus time trace for each SWNT sensor (FIG. 27c).
The use of single nanotube spectroscopy allowed this question to be addressed (FIG. 32). […] Using software developed in house, the movies of SWNT fluorescence were analyzed and intensity time traces were extracted for each of the individual SWNT sensors (FIG. 37).^24b An efficient algorithm for fitting large quantities of these time traces to embedded fluorescent levels was used.^35 Briefly, the algorithm used an optimized form of an established noise-reduction algorithm for biological experiments^36 to clean the traces (FIG. 37c). It then evaluated all-points histograms of each trace to determine the unique fluorescent states of each trace. […]

GafD lectin [4] = target: T2, GafD lectin; conditions: probe 1 mg/ml with GafD 3 mg/ml in solution
Protocol: The interaction between lection and glycan was analyzed by 15% native PAGE according to the method of Schagger and von Jagow with minor modifications. […] Briefly, blectrophoresis was performed using Mini Protean Electrophoresis system (Bio-Rad, USA™) for molecular interaction under nondenaturing conditions. Nonreduced protein/glycan samples in the sample buffer (20% glycerol, 200 mM Tris-HCl, pH 6.8, 0.05% bromophenol blue) were applied to the gel (gel buffer: 25 mM Tris-HCl, 200 mM glycine). Electrophoresis was performed at 80 V for 120 min. After electrophoresis, the protein bands were visualized by staining with Coomassie Brilliant Blue R-250.

CDK4 = CDK4 (Homo sapiens, UniProt P11802); assay: Protein-protein interaction on SWNT/CHI array, Förster distance calculation; conditions: distance change after analyte protein CDK4, Förster equation
CDK4, sequence (P11802 with tags, fused parts or gaps): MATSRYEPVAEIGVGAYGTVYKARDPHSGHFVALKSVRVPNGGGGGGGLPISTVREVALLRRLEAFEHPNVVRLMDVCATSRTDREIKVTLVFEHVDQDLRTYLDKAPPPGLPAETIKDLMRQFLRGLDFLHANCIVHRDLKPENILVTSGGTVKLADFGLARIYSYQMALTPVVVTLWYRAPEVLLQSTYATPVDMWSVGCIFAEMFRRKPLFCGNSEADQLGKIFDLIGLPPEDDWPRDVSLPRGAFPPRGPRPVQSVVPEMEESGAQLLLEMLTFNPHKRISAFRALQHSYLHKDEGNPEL
Protocol: Reaction mixtures for cell-free protein expression were added to each array wells. The fluorescent intensities of each SWNT/CHI well were taken to track the intensity changes. To initiate protein synthesis, 1 μl PCR-amplified DNAs were added to each well a humidified chamber at 37° C. for 2 hours. The arrays were washed three times for 10 min each with PBS buffer (pH 7.4, 100 mM) at RT and then PL spectra were taken. To analyze protein-protein interaction on SWNT/XHI array, anti-Histag antibody or cell-free expressed protein mixtures were added to each well and then PL spectra were taken to compare the intensity change.
Near-infrared photoluminescence spectra were acquired using 785 nm excitation and an Acton SP-150 spectrograph coupled to a Princeton instruments OMA V InGaAs detector or with Kaiser Holospec f/1.8 Imaging Spectrograph (Kaiser Optical).

[5] = from concentration dependent curves, analyte to PA-IIL
[6] = after Ni2+ and GafD lectin loading, FIG. 29a-b
[7] = from concentration dependent curves, analyte to GafD

O=C(O)CCCC[C@@H]1SC[C@@H]2NC(=O)N[C@@H]21 [biotin]
sensor response of controls [1]: negligible response

Fuc-Strept: model glycoprotein probe: biotinylated fucose glycan bound to streptavidin
sensor response / cross response to PA-IIL lectin (PA-IIL lectin): positive response
Kf (PA-IIL lectin; [5]): 0.0001 µM/s
sensor response / cross response to GafD lectin (GafD lectin [2]): small affinity

Fucα1-2Galβ1-4Glcβ-SpNH-LC-LC-Biotin [Fuc-Biotin]
Kd (PA-IIL lectin; [5]): 106 µM
Kf (PA-IIL lectin; [5]): 7e-05 µM/s
kr (PA-IIL lectin; [5]): 0.0074 s⁻¹

GlcNAc-Strept: model glycoprotein probe: biotinylated GlcNAc glycan bound to streptavidin
sensor response / cross response to PA-IIL lectin (PA-IIL lectin): negligible binding
signal modulation (response) (GafD lectin [3]): ~3.5%
complex formation on native PAGE gel (GafD lectin [4]): bound complex
time response (loading curve) upon analyte addition (GafD lectin [2]; [6]): SPR-like loading curve was observed
sensor response / cross response to GafD lectin (GafD lectin [2]): positive response
Kf (GafD lectin [2]; [7]): 0.0003 µM/s
kr (GafD lectin [2]; [7]): 0.015 s⁻¹

GlcNAcβ-SpNH-LC-LC-Biotin [GlcNAc-Biotin]
time response (loading curve) upon analyte addition (GafD lectin [2]; [6]): loading curve was observed
Kd (GafD lectin [2]; [7]): 19 µM
Kf (GafD lectin [2]; [7]): 0.0002 µM/s
kr (GafD lectin [2]; [7]): 0.0037 s⁻¹

blank streptavidin: streptavidin (Sigma Aldrich SO677) without glycan
sensor response of controls [1]: negligible response
time response (loading curve) upon analyte addition (GafD lectin [2]; GafD lectin biotinylated, positive control, FIG. 29c): expected loading curve was observed
time response (loading curve) upon analyte addition (GafD lectin [2]; [6]): No loading curve was observed

p16: human derived protein (ExPASy P42771), on-chip cell-free expressed with His-tag
Δd2 (CDK4): 0.05174
